According to patent US20180086836A1 (GLENMARK PHARMACEUTICALS S A, published 2018):

How the values were obtained:
hsCCR6/mmN-term = molecular target: T1, hsCCR6/mmN-term (human/mouse hybrid, UniProt P51684 36-374); experiment: flow cytometry on transfected cells (Murine Nter, Human loops 1-3), PE-labelled secondary antibody
T1 construct: also called mutant 4; human CCR6 receptor containing a mouse N-terminal region
T1 chain: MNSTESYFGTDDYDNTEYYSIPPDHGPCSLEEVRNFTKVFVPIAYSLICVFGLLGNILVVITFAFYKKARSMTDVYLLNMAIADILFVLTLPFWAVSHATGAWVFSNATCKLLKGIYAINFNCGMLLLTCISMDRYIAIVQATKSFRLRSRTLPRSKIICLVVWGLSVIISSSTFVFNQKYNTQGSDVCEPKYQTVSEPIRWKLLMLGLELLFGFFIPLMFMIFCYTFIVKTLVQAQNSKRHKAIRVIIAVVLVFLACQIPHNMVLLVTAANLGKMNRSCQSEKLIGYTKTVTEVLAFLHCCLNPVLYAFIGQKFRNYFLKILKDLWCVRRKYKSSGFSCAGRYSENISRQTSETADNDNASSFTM
Method: (§1) Binding of the chimeric 4H11 antibody to human/mouse CCR6 hybrid constructs was evaluated by flow cytometry. Human/mouse CCR6 transfectants were counted and 2×10⁵ cells were incubated with 10 μg/ml of chimeric 4H11 antibody. Binding activity of 4H11 was detected with anti-human IgG-PE. To evaluate good expression of the human/mouse chimera on cells, two commercial antibodies directed against human and mouse CCR6 were used. Histogram plots show the geometric mean of fluorescence intensity (Y-axis) measured by flow cytometry
(§2) Binding of MAb to the surface of CCR6 transfected CHO cells was assessed using flow cytometry. 2×10⁵ cells were distributed in a 96 well V bottom plate and centrifuged for three minutes at 1300 rpm. Cells were collected and incubated with the appropriate mAb at a final concentration of 10 μg/ml in a volume of 50 μl in FACS buffer. Cells were incubated for 30 minutes on ice, washed twice and resuspended in 50 μl of PE-labelled secondary antibody diluted at 1/200 in FACS buffer. Cells were incubated for 15 minutes on ice, washed once, resuspended in 400 μl of FACS buffer and analyzed on the FACS instrument (Cyan, Beckman Coulter) in channel FL-2.

hsCCR6/mmECL3 = molecular target: T2, hsCCR6/mmECL3 (human/mouse hybrid, UniProt P51684 1-374); experiment: flow cytometry on transfected cells (Human Nter, only loop 3 drawn black as murine), 10 µg/ml, PE-labelled secondary antibody
T2 construct: also called third mutant; pT1-hsCCR6/mmECL3
T2 chain: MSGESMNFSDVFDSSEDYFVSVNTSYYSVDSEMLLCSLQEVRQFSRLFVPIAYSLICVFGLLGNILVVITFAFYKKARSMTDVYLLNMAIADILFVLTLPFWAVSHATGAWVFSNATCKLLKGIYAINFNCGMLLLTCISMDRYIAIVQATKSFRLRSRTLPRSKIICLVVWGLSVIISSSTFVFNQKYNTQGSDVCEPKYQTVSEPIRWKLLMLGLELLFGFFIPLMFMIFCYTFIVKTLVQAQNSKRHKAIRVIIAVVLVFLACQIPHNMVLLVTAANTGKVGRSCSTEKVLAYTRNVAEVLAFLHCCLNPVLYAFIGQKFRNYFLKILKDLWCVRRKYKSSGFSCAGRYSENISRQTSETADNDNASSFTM
Method: as §1, §2

hsCCR6/mmECL2 = molecular target: T3, hsCCR6/mmECL2 (human/mouse hybrid, UniProt P51684 1-374); experiment: flow cytometry on transfected cells (Human Nter, only loop 2 drawn black as murine), 10 µg/ml, PE-labelled secondary antibody
T3 construct: also called second mutant; pT1-hsCCR6/mmECL2
T3 chain: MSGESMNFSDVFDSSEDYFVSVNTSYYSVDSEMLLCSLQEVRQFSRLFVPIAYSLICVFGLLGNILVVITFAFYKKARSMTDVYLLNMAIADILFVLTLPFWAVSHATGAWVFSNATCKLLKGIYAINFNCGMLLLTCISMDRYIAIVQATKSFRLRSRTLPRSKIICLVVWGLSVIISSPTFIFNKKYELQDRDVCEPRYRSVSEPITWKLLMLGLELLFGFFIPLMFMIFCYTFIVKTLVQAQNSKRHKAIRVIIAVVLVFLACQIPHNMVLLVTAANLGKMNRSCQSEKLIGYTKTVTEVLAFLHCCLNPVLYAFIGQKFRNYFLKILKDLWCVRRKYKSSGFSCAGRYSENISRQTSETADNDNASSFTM
Method: as §1, §2

hsCCR6/mmECL1 = molecular target: T4, hsCCR6/mmECL1 (human/mouse hybrid, UniProt P51684 1-374); experiment: flow cytometry on transfected cells (Human Nter, Murine loop 1, Human loops 2 and 3), 10 µg/ml, PE-labelled secondary antibody
T4 construct: also called first mutant; pT1-hsCCR6/mmECL1
T4 chain: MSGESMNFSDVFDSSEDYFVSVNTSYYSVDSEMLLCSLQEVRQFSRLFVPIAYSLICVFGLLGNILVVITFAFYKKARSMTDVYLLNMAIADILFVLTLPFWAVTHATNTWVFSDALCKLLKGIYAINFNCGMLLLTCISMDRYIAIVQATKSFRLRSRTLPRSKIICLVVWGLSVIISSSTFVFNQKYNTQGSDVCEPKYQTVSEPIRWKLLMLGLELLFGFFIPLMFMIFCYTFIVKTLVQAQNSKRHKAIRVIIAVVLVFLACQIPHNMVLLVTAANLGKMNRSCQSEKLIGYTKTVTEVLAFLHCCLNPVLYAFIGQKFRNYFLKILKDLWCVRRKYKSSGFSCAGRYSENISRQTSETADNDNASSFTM
Method: as §1, §2

mmCCR6/hsN-term = molecular target: T5, mmCCR6/hsN-term (human/mouse hybrid); experiment: flow cytometry on transfected cells (Human Nter, Murine loops 1-3), 10 µg/ml, PE-labelled secondary antibody
T5 construct: also called mutant 5; mouse CCR6 receptor containing a human N-terminal region
T5 chain: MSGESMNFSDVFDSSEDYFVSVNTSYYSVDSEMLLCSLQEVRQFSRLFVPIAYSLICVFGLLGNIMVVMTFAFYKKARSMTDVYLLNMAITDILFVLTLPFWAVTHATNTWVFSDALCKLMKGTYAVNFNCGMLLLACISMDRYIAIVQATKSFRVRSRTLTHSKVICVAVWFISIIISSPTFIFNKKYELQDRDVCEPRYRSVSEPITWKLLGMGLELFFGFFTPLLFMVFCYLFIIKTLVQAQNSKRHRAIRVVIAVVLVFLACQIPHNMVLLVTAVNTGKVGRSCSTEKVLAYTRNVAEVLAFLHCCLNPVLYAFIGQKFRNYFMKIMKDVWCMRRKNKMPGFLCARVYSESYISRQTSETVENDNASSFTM
Method: as §1, §2

mouse CCR6 = molecular target: T6, mouse CCR6 (mouse, UniProt O54689 1-367); experiment: not given; premise of the human/mouse hybrid mapping
T6 construct: also called mmCCR6; murine CCR6
T6 sequence: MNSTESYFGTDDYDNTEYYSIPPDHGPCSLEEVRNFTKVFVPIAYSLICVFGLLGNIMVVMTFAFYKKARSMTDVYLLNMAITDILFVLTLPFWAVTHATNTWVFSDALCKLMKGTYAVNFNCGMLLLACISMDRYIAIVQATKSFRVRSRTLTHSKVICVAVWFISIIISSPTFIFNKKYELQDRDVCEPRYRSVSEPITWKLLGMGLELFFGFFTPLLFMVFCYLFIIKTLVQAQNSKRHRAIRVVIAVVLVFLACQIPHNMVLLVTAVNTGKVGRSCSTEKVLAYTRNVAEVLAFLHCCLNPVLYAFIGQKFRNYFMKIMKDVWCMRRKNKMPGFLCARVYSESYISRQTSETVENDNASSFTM

binding result (hsCCR6/mmN-term): no binding (tested: 10 µg/ml) | binding result (hsCCR6/mmECL3): binds | binding result (hsCCR6/mmECL2): binds | binding result (hsCCR6/mmECL1): binds | binding result (mmCCR6/hsN-term): binds | binding result (mouse CCR6): no binding
B1: chimeric 4H11 antibody (antibody, human IgG1, kappa, V domains shown)
VH: EVKLVESGGGLVQPGGSLKLSCATSGFSFSDYYMYWIRQTPEKRLEWVAYITNGGITYYPDTVKGRFTISRDNAKNTLYLQMSRLRSEDTAMYYCTSPLRGAWFAYWGQGTLVTVSS
VL: DVIMTQSPLSLPVSLGDQASISCRSSQSIVHSNGNTYLEWYLQKPGQSPKLLIYKVSNRFSGVPDRFSGSGSGTDFTLKISRVEAEDLGLYYCFQGSHVPLTFGAGTKLEIKR
notes: also called chimeric 4H11 mAb; 4H11 chimeric antibody
